Test results as given in patent publication US5487994, “Insertion and deletion mutants of FokI restriction endonuclease” (The Johns Hopkins University).

Columns and labels:
[1] = target: FokI endonuclease wild-type (Flavobacterium okeanokoites, UniProt P14870 P14870:2-579); experiment: filter; with poly(dI-dC), 1 mM EDTA, 50 mM NaCl, 22 C; values only in figure; conditions: tags: expressed in E. coli RR1 from pRRSfokIR; label: 32P
Description: (§1) The filter binding assays were performed in duplicate using *Fok*I or mutant enzymes and the four different synthetic substrates, SEQ ID NO:12, SEQ ID NO:13, hemi-methylated oligonucleotide of SEQ ID NO:12 and hemi-methylated oligonucleotide of SEQ ID NO:13. Nine different concentrations for each of the enzymes were made by serial dilutions ([…], 2000, 667, 222, 74.1, 24.7, 8.23, 2.74 and 0.914 nM). The enzymes were mixed with 40 nM of each labelled substrate along with 50 μg/ml p(dI-dC) and 50 μg/ml BSA in 50 μl of buffer A[10 mM Tris. phosphate (pH 8.0), 7 mM 2-mercaptoethanol, 1 mM EDTA, 50 mM NaCl, and 10% (vol/vol) glycerol]. The samples were incubated at 22° C. for 1 hr and then loaded on to nitrocellulose filters. The filters were washed twice with 0.5 ml of buffer A, dried and counted using the scintillation counter.
(§2) Why does the four amino-acid residue insertions enable the mutant enzymes to cleave hemi-methylated DNA and not the larger inserts? The four codon insertions could increase the affinity of the mutants for the hemi-methylated DNA. The binding affinities of wild-type enzyme and both four codon insertion mutants were compared by filter binding assays using the synthetic oligonucleotide substrates (FIGS. 9A, 9B and 9C). The binding affinities were measured in the presence of non-specific DNA, poly dI-dC.

[2] = target: FokI TAEL (+4) insertion mutant (Flavobacterium okeanokoites, UniProt P14870 P14870:2-579, insertion of TAEL after QLV in linker (linker SEQ 21)); experiment: filter; similar to wild-type; conditions: label: 32P
Description: as §1, §2

Chain of FokI TAEL (+4) insertion mutant (P14870 other isoform, or with tags, fused parts or gaps with the stated changes): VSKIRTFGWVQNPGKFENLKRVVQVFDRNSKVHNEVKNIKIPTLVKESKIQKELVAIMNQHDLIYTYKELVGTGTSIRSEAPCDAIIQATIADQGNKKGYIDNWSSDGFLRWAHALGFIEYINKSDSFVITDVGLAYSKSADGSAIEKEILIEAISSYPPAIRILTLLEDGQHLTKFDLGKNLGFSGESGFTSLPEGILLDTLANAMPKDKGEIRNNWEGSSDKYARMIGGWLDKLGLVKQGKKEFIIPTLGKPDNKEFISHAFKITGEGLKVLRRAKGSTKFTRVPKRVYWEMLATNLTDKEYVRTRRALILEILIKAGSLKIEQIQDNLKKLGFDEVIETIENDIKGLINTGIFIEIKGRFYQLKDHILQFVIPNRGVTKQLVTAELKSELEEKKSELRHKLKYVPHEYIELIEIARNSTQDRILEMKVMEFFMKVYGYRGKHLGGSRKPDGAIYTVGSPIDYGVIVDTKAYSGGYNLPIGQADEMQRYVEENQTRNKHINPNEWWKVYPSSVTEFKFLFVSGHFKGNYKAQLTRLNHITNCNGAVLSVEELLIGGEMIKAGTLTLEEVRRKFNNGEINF
Chain of FokI endonuclease wild-type (P14870 2-579, one chain of several): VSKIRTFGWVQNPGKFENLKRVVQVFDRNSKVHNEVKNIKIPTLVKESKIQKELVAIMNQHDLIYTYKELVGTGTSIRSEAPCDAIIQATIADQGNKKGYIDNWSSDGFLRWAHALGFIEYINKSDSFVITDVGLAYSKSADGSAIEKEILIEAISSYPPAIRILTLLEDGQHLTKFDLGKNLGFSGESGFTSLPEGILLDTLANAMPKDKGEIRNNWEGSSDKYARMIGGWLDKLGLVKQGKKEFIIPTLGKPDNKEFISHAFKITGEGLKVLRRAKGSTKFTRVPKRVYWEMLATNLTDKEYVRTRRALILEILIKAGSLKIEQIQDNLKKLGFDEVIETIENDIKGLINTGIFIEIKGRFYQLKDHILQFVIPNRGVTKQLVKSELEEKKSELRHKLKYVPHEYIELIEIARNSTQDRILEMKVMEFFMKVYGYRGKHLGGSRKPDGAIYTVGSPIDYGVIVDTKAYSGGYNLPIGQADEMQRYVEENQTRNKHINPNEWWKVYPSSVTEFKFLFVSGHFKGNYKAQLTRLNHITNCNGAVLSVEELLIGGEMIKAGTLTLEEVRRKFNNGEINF

B1: unmethylated FokI substrate (dsDNA)
DNA 1: CTAGAGTCAGAATTCGAAGACTTGCCGGATGATCTGCAGGCCAGCTGTGGCGTCTAAATTGA
DNA 2: AGCTTCAATTTAGACGCCACAGCTGGCCTGCAGATCATCCGGCAAGTCTTCGAATTCTGACT
binding result [1]: binds | binding result [2]: binds
